From patent publication US20030049211A1 (published 2003) come the findings set out here.

B1: mouse monoclonal antibody #23-57-137-1 against human PTHrP (1-34) (antibody, V domains shown)
VH: EVQLVESGGDLVKPGGSLKLSCAASGFTFSSYGMSWIRQTPDKRLEWVATISSGGSYTYYPDSVKGRFTISRDNAKNTLYLQMSSLKSEDTAMFYCARQTTMTYFAYWGQGTLVTVSA
VL: QLVLTQSSSASFSLGASAKLTCTLSSQHSTYTIEWYQQQPLKPPKYVMDLKQDGSHSTGDGIPDRFSGSSSGADRYLSISNIQPEDEAMYICGVGDTIKEQFVYVFGGGTKVTVLG
notes: Mouse antibody from hybridoma culture supernatant; mouse lambda L-chain; H-chain cloned with an MHC-G1 primer
B2: humanized #23-57-137-1 antibody having L-chain version "s" (antibody, V domains shown)
VH: QVQLVESGGGVVQPGRSLRLSCAASGFTFSSYGMSWVRQAPGKGLEWVATISSGGSYTYYPDSVKGRFTISRDNSKNTLYLQMNSLRAEDTAVYYCARQTTMTYFAYWGQGTLVTVSS
VL: QLVLTQSPSASASLGASVKLTCTLSSQHSTYTIEWYQQQPEKGPKYVMDLKQDGSHSTGDGIPDRFSGSSSGAERYLTISSLQSEDEADYICGVGDTIKEQFVYVFGGGTKLTVLG
notes: Humanized H-chain version a with human Cgamma1; human lambda C-region; COS-7 expressed; also called hMBC1HcDNA/pCOS1 and hMBC1Lsλ/pCOS1
B3: mouse FR1,2/human FR3,4 hybrid antibody, L-chain m/hMBC1Laλ (antibody, V domains shown)
VH: QVQLVESGGGVVQPGRSLRLSCAASGFTFSSYGMSWVRQAPGKGLEWVATISSGGSYTYYPDSVKGRFTISRDNSKNTLYLQMNSLRAEDTAVYYCARQTTMTYFAYWGQGTLVTVSS
VL: QLVLTQSSSASFSLGASAKLTCTLSSQHSTYTIEWYQQQPLKPPKYVMDLKQDGSHSTGDGIPDRFSGSSSGAERYLTISSLQSEDEADYYCGVGDTIKEQFVYVFGGGTKLTVL
notes: H-chain from hMBC1HcDNA/pCOS1 (humanized version a, human Cgamma1); human lambda C-region
B4: humanized #23-57-137-1 antibody having L-chain version "l" (antibody, V domains shown)
VH: QVQLVESGGGVVQPGRSLRLSCAASGFTFSSYGMSWVRQAPGKGLEWVATISSGGSYTYYPDSVKGRFTISRDNSKNTLYLQMNSLRAEDTAVYYCARQTTMTYFAYWGQGTLVTVSS
VL: QLVLTQSPSASASLGASVKLTCTLSSQHSTYTIEWYQQQPEKGPKYVMDLKQDGSHSTGDGIPDRFSGSSSGAERYLTISSLQSEDEADYYCGVGDTIKEQFVYVFGGGTKLTVLG
notes: Humanized H-chain version a with human Cgamma1; human lambda C-region; COS-7 expressed; also called hMBC1HcDNA/pCOS1 and hMBC1Llλ/pCOS1
B5: human FR1/mouse FR2,3,4 hybrid antibody, L-chain hmmMBC1L(λ) (antibody, V domains shown)
VH: QVQLVESGGGVVQPGRSLRLSCAASGFTFSSYGMSWVRQAPGKGLEWVATISSGGSYTYYPDSVKGRFTISRDNSKNTLYLQMNSLRAEDTAVYYCARQTTMTYFAYWGQGTLVTVSS
VL: QLVLTQSPSASASLGASVKLTCTLSSQHSTYTIEWYQQQPLKPPKYVMDLKQDGSHSTGDGIPDRFSGSSSGADRYLSISNIQPEDEAMYICGVGDTIKEQFVYVFGGGTKVTVL
notes: H-chain from hMBC1HcDNA/pCOS1 (humanized version a, human Cgamma1); human lambda C-region; also called FR1/FR2 hybrid antibody
B6: humanized #23-57-137-1 antibody having L-chain version "t" (antibody, V domains shown)
VH: QVQLVESGGGVVQPGRSLRLSCAASGFTFSSYGMSWVRQAPGKGLEWVATISSGGSYTYYPDSVKGRFTISRDNSKNTLYLQMNSLRAEDTAVYYCARQTTMTYFAYWGQGTLVTVSS
VL: QLVLTQSPSASASLGASVKLTCTLSSQHSTYTIEWYQQQPEKGPRYVMDLKQDGSHSTGDGIPDRFSGSSSGAERYLTISSLQSEDEADYICGVGDTIKEQFVYVFGGGTKLTVLG
notes: Humanized H-chain version a with human Cgamma1; human lambda C-region; COS-7 expressed; also called hMBC1HcDNA/pCOS1 and hMBC1Ltλ/pCOS1
B7: humanized #23-57-137-1 antibody having L-chain version "o" (antibody, V domains shown)
VH: QVQLVESGGGVVQPGRSLRLSCAASGFTFSSYGMSWVRQAPGKGLEWVATISSGGSYTYYPDSVKGRFTISRDNSKNTLYLQMNSLRAEDTAVYYCARQTTMTYFAYWGQGTLVTVSS
VL: QLVLTQSPSASASLGASVKLTCTLSSQHSTYTIEWYQQQPEKGPRYVMDLKQDGSHSTGDGIPDRFSGSSSGAERYLTISSLQSEDEADYYCGVGDTIKEQFVYVFGGGTKLTVLG
notes: Humanized H-chain version a with human Cgamma1; human lambda C-region; COS-7 expressed; also called hMBC1HcDNA/pCOS1 and hMBC1Loλ/pCOS1
B8: humanized #23-57-137-1 antibody having L-chain version "m" (antibody, V domains shown)
VH: QVQLVESGGGVVQPGRSLRLSCAASGFTFSSYGMSWVRQAPGKGLEWVATISSGGSYTYYPDSVKGRFTISRDNSKNTLYLQMNSLRAEDTAVYYCARQTTMTYFAYWGQGTLVTVSS
VL: QLVLTQSPSASASLGASVKLTCTLSSQHSTYTIEWYQQQPEKGPRYLMDLKQDGSHSTGDGIPDRFSGSSSGAERYLTISSLQSEDEADYYCGVGDTIKEQFVYVFGGGTKLTVLG
notes: Humanized H-chain version a with human Cgamma1; human lambda C-region; COS-7 expressed; also called hMBC1HcDNA/pCOS1 and hMBC1Lmλ/pCOS1
B9: humanized #23-57-137-1 antibody having L-chain version "r" (antibody, V domains shown)
VH: QVQLVESGGGVVQPGRSLRLSCAASGFTFSSYGMSWVRQAPGKGLEWVATISSGGSYTYYPDSVKGRFTISRDNSKNTLYLQMNSLRAEDTAVYYCARQTTMTYFAYWGQGTLVTVSS
VL: QLVLTQSPSASASLGASVKLTCTLSSQHSTYTIEWYQQQPEKGPRYLMDLKQDGSHSTGDGIPDRFSGSSSGAERYLTISSLQSEDEADYICGVGDTIKEQFVYVFGGGTKLTVLG
notes: Humanized H-chain version a with human Cgamma1; human lambda C-region; COS-7 expressed (also CHO); also called hMBC1HcDNA/pCOS1 and hMBC1Lrλ/pCOS1
B10: humanized #23-57-137-1 antibody having L-chain version "q" (antibody, V domains shown)
VH: QVQLVESGGGVVQPGRSLRLSCAASGFTFSSYGMSWVRQAPGKGLEWVATISSGGSYTYYPDSVKGRFTISRDNSKNTLYLQMNSLRAEDTAVYYCARQTTMTYFAYWGQGTLVTVSS
VL: QLVLTQSPSASASLGASVKLTCTLSSQHSTYTIEWYQQQPEKGPKYLMDLKQDGSHSTGDGIPDRFSGSSSGAERYLTISSLQSEDEADYICGVGDTIKEQFVYVFGGGTKLTVLG
notes: Humanized H-chain version a with human Cgamma1; human lambda C-region; COS-7 expressed (also CHO); also called hMBC1HcDNA/pCOS1 and hMBC1Lqλ/pCOS1
B11: humanized #23-57-137-1 antibody having L-chain version "j" (antibody, V domains shown)
VH: QVQLVESGGGVVQPGRSLRLSCAASGFTFSSYGMSWVRQAPGKGLEWVATISSGGSYTYYPDSVKGRFTISRDNSKNTLYLQMNSLRAEDTAVYYCARQTTMTYFAYWGQGTLVTVSS
VL: QLVLTQSPSASASLGASVKLTCTLSSQHSTYTIEWYQQQPEKGPKYLMDLKQDGSHSTGDGIPDRFSGSSSGAERYLTISSLQSEDEADYYCGVGDTIKEQFVYVFGGGTKLTVLG
notes: Humanized H-chain version a with human Cgamma1; human lambda C-region; COS-7 expressed; also called hMBC1HcDNA/pCOS1 and hMBC1Ljλ/pCOS1
B12: antibody having both a humanized H-chain version "a" and a chimeric L-chain (antibody, V domains shown)
VH: QVQLVESGGGVVQPGRSLRLSCAASGFTFSSYGMSWVRQAPGKGLEWVATISSGGSYTYYPDSVKGRFTISRDNSKNTLYLQMNSLRAEDTAVYYCARQTTMTYFAYWGQGTLVTVSS
VL: QLVLTQSSSASFSLGASAKLTCTLSSQHSTYTIEWYQQQPLKPPKYVMDLKQDGSHSTGDGIPDRFSGSSSGADRYLSISNIQPEDEAMYICGVGDTIKEQFVYVFGGGTKVTVLG
notes: Human Cgamma1 H-chain C-region
B13: chimeric #23-57-137-1 antibody with L-chain kappa chain C-region (antibody, V domains shown)
VH: EVQLVESGGDLVKPGGSLKLSCAASGFTFSSYGMSWIRQTPDKRLEWVATISSGGSYTYYPDSVKGRFTISRDNAKNTLYLQMSSLKSEDTAMFYCARQTTMTYFAYWGQGTLVTVSA
VL: QLVLTQSSSASFSLGASAKLTCTLSSQHSTYTIEWYQQQPLKPPKYVMDLKQDGSHSTGDGIPDRFSGSSSGADRYLSISNIQPEDEAMYICGVGDTIKEQFVYVFGGGTKVTVLG
notes: Mouse V-regions joined to human H-chain C-region Cgamma1 and human kappa C-region (from plasmid HEF-PM1k-gk); expressed in COS-7 cells; also called chimeric antibody; MBC1HcDNA/pCOS1 and MBC1L(κ)/neo
B14: chimeric #23-57-137-1 antibody with L-chain lambda chain C-region (antibody, V domains shown)
VH: EVQLVESGGDLVKPGGSLKLSCAASGFTFSSYGMSWIRQTPDKRLEWVATISSGGSYTYYPDSVKGRFTISRDNAKNTLYLQMSSLKSEDTAMFYCARQTTMTYFAYWGQGTLVTVSA
VL: QLVLTQSSSASFSLGASAKLTCTLSSQHSTYTIEWYQQQPLKPPKYVMDLKQDGSHSTGDGIPDRFSGSSSGADRYLSISNIQPEDEAMYICGVGDTIKEQFVYVFGGGTKVTVLG
notes: Mouse V-regions joined to human H-chain C-region Cgamma1 and human lambda C-region (isotype Mcg+Ke+Oz-, EMBL X57819); expressed in COS-7 cells; also called chimeric antibody; MBC1HcDNA/pCOS1 and MBC1L(λ)/neo

The first assay deals with T1, human PTHrP (1-34) (human).
T1 construct: Synthetic peptide (Peninsula; Peptide Research Institute), coated on ELISA plates at 1 ug/ml; added at 1 ng/ml final in the cAMP assay; also called parathyroid hormone related peptide (1-34)
Put plainly: solid phase RIA of hybridoma culture supernatant. The source says: The hybridomas thus obtained was suspended into RPMI-1640 medium containing 15% FCS supplemented with OPI-supplement (Sigma), followed by unification of the hybridomas by limiting dilution method.
Take B1: the binding result is “binds”.

A further assay deals with T1, human PTHrP (1-34). The experiment in a line: ELISA, plate coated with human PTHrP (1-34). The procedure: An ELISA plate for determining antigen-binding ability was prepared as follows. Each well of a 96-well ELISA plate (Maxisorp, NUNC) was coated with 100 μl of a coating buffer containing 1 μg/ml of human PTHrP (1-34) and then blocked with 200 μl of a dilution buffer. Subsequently, each well was added with each of the serial dilutions of the COS-7 cell culture supernatant in which each of the hybrid antibodies and humanized antibodies was expressed, or added with each of the serial dilutions of each of the hybrid antibodies and humanized antibodies in a purified form. The plate was incubated at room temperature and washed with PBS-Tween 20. Subsequently, each well was added with 100 μl of alkaline phosphatase-conjugated goat anti-human IgG antibody (TAGO). The plate was incubated at room temperature and washed with PBS-Tween 20. Subsequently, each well was added with 1 mg/ml of a substrate solution (“Sigma 104”, p-nitrophenylphosphoric acid, SIGMA). The solution was measured on its absorbance at 405 nm using Microplate Reader (Bio Rad).
Consider B2, for which the binding result was “binds”.

As for B3, the binding result was “binds”.

B4: the binding result is on record as “binds”.

Regarding B5, the binding result is recorded as “binds”.

With B6, the binding result is listed as “binds”.

On to B7, for which the binding result was “binds”.

Consider B8, for which the binding result is reported as “binds”.

For the molecule B9, the binding result is given as “binds”.

As to B10, the binding result is reported as “binds”.

In the case of B11, the binding result is reported as “binds”.

B12: the binding result is listed as “binds”.

In the case of B13, the binding result is on record as “binds”.

As for B14, the binding result is listed as “binds”.
